Molecular target: ATP synthase c-subunit (c10-ring) (Polytomella sp.)
Test: cryo-EM structure

In the case of “ATP synthase c-subunit (c10-ring) (natural protein)”, the stoichiometry N is reported as 10.

Source: doi:10.1101/543108
